Series [1] deals with the molecule itself. The series is described as follows: SEC-SAXS; online SEC (Superose 6 10/300 GL) in 50 mM Tris pH 8.8, 50 mM NaCl; 500 µl at 220 µM injected; BM29 at the ESRF. On the technique in general: Size exclusion chromatography separates by hydrodynamic size, large species first.
Series [2] concerns the molecule itself. The series is described as follows: SEC; Superose 6; N-terminally His-tagged full length MsVps4 and mutants at 70 µM, a concentration that induces dodecamer formation; no nucleotide.
Series [3] concerns the molecule itself. The series is described as above. The source holds these as a separate data set.
Series [4] deals with the molecule itself. The series is described as follows: SEC; Superose 6; MsVps4ΔMIT at 200 µM (Fig. 1b) and at a series of concentrations up to 0.5 mM (Supplementary Fig. 2); no nucleotide.
The next series deals with hVPS4B Phe160Ala (human) (UniProt O75351).
Series [5] has as its target T1, hVPS4B E235Q (catalytic mutant of human VPS4B) (human), O75351.
T1 chain: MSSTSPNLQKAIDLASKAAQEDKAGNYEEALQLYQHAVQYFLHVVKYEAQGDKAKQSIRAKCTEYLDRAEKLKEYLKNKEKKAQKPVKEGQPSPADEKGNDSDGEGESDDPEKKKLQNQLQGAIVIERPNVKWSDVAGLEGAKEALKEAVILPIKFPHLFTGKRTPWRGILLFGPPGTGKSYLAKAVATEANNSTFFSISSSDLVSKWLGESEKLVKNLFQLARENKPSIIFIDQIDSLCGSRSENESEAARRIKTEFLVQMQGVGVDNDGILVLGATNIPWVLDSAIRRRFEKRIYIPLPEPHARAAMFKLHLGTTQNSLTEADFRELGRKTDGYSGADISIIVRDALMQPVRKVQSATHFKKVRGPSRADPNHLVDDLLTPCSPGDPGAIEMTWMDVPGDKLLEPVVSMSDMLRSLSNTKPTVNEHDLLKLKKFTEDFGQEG
The series is described as follows: SEC; Superose 6; hVPS4B E235Q and mutants of it at 100 µM with 1 mM ATP and 5 mM MgCl2. The conditions noted are these: remark: other sources report otherwise.

The target in a further series is hVPS4B Met350Ala (human) (UniProt O75351).

Several values for one entry are separate records, joined by “and”; a condition that tells them apart may be missing. Equal values may be shown once.

B1: MsVPS4 M318A, full length, His tag cleaved (enzyme, Metallosphera sedula, UniProt A4YHC5 1-369, looked up)
chain: MSAQVMLEEMARKYAIAAVRADKEGRREDAINNYKKAIEVLTQIVTLYPDMVARNAYEQMINEYKKRLETLNQMVPEGGEETEKAEEDIVMKEKPKVTLNEIVGLEDVKEALKEAVVYPSKRPDLFPLGWPRGILLYGPPGCGKTMIAAAVANELDSEFIHVDAASIMSKWLGEAEKNVAKIFKTARELSKKENKPAIIFIDELDALLASYTSEVGGEARVRNQFLKEMDGLADKNEISKVYVIGATNKPWRLDEPFLRRFQKRIYITLPDKAHRLELLKHYSSKVKLDPNVNLEELAELTDGYTASDIRDIVQSAHARVVKEMFEKNLQEPRAINMDDFREVLKVRKPSVNQDMLKAYAAWHEKFKAL
One may read the stoichiometry N as a count of units in the complex or per binding partner. For the molecule B1, the “stoichiometry N” value in series [1] stood at 6.

B2: MsVps4 Met318Ala, full length, N-terminally His-tagged (enzyme, Metallosphera sedula, UniProt A4YHC5 1-369, looked up)
chain: MSAQVMLEEMARKYAIAAVRADKEGRREDAINNYKKAIEVLTQIVTLYPDMVARNAYEQMINEYKKRLETLNQMVPEGGEETEKAEEDIVMKEKPKVTLNEIVGLEDVKEALKEAVVYPSKRPDLFPLGWPRGILLYGPPGCGKTMIAAAVANELDSEFIHVDAASIMSKWLGEAEKNVAKIFKTARELSKKENKPAIIFIDELDALLASYTSEVGGEARVRNQFLKEMDGLADKNEISKVYVIGATNKPWRLDEPFLRRFQKRIYITLPDKAHRLELLKHYSSKVKLDPNVNLEELAELTDGYTASDIRDIVQSAHARVVKEMFEKNLQEPRAINMDDFREVLKVRKPSVNQDMLKAYAAWHEKFKAL
Regarding B2, the “stoichiometry N” value in series [2] was 2; in series [3], 6.

B3: MsVps4 Glu174Ala Glu176Ala, full length, N-terminally His-tagged (enzyme, Metallosphera sedula, UniProt A4YHC5 1-369, looked up)
chain: MSAQVMLEEMARKYAIAAVRADKEGRREDAINNYKKAIEVLTQIVTLYPDMVARNAYEQMINEYKKRLETLNQMVPEGGEETEKAEEDIVMKEKPKVTLNEIVGLEDVKEALKEAVVYPSKRPDLFPLGWPRGILLYGPPGCGKTMIAAAVANELDSEFIHVDAASIMSKWLGAAAKNVAKIFKTARELSKKENKPAIIFIDELDALLASYTSEVGGEARVRNQFLKEMDGLADKNEISKVYVIGATNKPWRLDEPFLRRFQKRIYITLPDKAHRLELLKHYSSKVKLDPNVNLEELAELTDGYTASDIRDIVQSAHMRVVKEMFEKNLQEPRAINMDDFREVLKVRKPSVNQDMLKAYAAWHEKFKAL
Consider B3, for which the “stoichiometry N” value in series [2] was 6 and 2; in series [3], 12.

B4: MsVps4 wild type, full length, N-terminally His-tagged (enzyme, Metallosphera sedula, UniProt A4YHC5 1-369, looked up)
chain: MSAQVMLEEMARKYAIAAVRADKEGRREDAINNYKKAIEVLTQIVTLYPDMVARNAYEQMINEYKKRLETLNQMVPEGGEETEKAEEDIVMKEKPKVTLNEIVGLEDVKEALKEAVVYPSKRPDLFPLGWPRGILLYGPPGCGKTMIAAAVANELDSEFIHVDAASIMSKWLGEAEKNVAKIFKTARELSKKENKPAIIFIDELDALLASYTSEVGGEARVRNQFLKEMDGLADKNEISKVYVIGATNKPWRLDEPFLRRFQKRIYITLPDKAHRLELLKHYSSKVKLDPNVNLEELAELTDGYTASDIRDIVQSAHMRVVKEMFEKNLQEPRAINMDDFREVLKVRKPSVNQDMLKAYAAWHEKFKAL
For the molecule B4, the “stoichiometry N” value is 6 and 2 in series [2]; 12 in series [3].

B5: MsVps4 Arg259Ala Arg260Ala, full length, N-terminally His-tagged (enzyme, Metallosphera sedula, UniProt A4YHC5 1-369, looked up)
chain: MSAQVMLEEMARKYAIAAVRADKEGRREDAINNYKKAIEVLTQIVTLYPDMVARNAYEQMINEYKKRLETLNQMVPEGGEETEKAEEDIVMKEKPKVTLNEIVGLEDVKEALKEAVVYPSKRPDLFPLGWPRGILLYGPPGCGKTMIAAAVANELDSEFIHVDAASIMSKWLGEAEKNVAKIFKTARELSKKENKPAIIFIDELDALLASYTSEVGGEARVRNQFLKEMDGLADKNEISKVYVIGATNKPWRLDEPFLAAFQKRIYITLPDKAHRLELLKHYSSKVKLDPNVNLEELAELTDGYTASDIRDIVQSAHMRVVKEMFEKNLQEPRAINMDDFREVLKVRKPSVNQDMLKAYAAWHEKFKAL
Regarding B5, the “stoichiometry N” value in series [2] was 2; in series [3], 6.

B6: MsVps4 Glu214Tyr, full length, N-terminally His-tagged (enzyme, Metallosphera sedula, UniProt A4YHC5 1-369, looked up)
chain: MSAQVMLEEMARKYAIAAVRADKEGRREDAINNYKKAIEVLTQIVTLYPDMVARNAYEQMINEYKKRLETLNQMVPEGGEETEKAEEDIVMKEKPKVTLNEIVGLEDVKEALKEAVVYPSKRPDLFPLGWPRGILLYGPPGCGKTMIAAAVANELDSEFIHVDAASIMSKWLGEAEKNVAKIFKTARELSKKENKPAIIFIDELDALLASYTSYVGGEARVRNQFLKEMDGLADKNEISKVYVIGATNKPWRLDEPFLRRFQKRIYITLPDKAHRLELLKHYSSKVKLDPNVNLEELAELTDGYTASDIRDIVQSAHMRVVKEMFEKNLQEPRAINMDDFREVLKVRKPSVNQDMLKAYAAWHEKFKAL
For B6, the “stoichiometry N” value is 6 and 2 in series [2]; 12 in series [3].

B7: MsVps4 Ser169Ala, full length, N-terminally His-tagged (enzyme, Metallosphera sedula, UniProt A4YHC5 1-369, looked up)
chain: MSAQVMLEEMARKYAIAAVRADKEGRREDAINNYKKAIEVLTQIVTLYPDMVARNAYEQMINEYKKRLETLNQMVPEGGEETEKAEEDIVMKEKPKVTLNEIVGLEDVKEALKEAVVYPSKRPDLFPLGWPRGILLYGPPGCGKTMIAAAVANELDSEFIHVDAASIMAKWLGEAEKNVAKIFKTARELSKKENKPAIIFIDELDALLASYTSEVGGEARVRNQFLKEMDGLADKNEISKVYVIGATNKPWRLDEPFLRRFQKRIYITLPDKAHRLELLKHYSSKVKLDPNVNLEELAELTDGYTASDIRDIVQSAHMRVVKEMFEKNLQEPRAINMDDFREVLKVRKPSVNQDMLKAYAAWHEKFKAL
With B7, the “stoichiometry N” value in series [2] was 6; in series [3], 12.

B8: MsVps4 Ile89Glu, full length, N-terminally His-tagged (enzyme, Metallosphera sedula, UniProt A4YHC5 1-369, looked up)
chain: MSAQVMLEEMARKYAIAAVRADKEGRREDAINNYKKAIEVLTQIVTLYPDMVARNAYEQMINEYKKRLETLNQMVPEGGEETEKAEEDEVMKEKPKVTLNEIVGLEDVKEALKEAVVYPSKRPDLFPLGWPRGILLYGPPGCGKTMIAAAVANELDSEFIHVDAASIMSKWLGEAEKNVAKIFKTARELSKKENKPAIIFIDELDALLASYTSEVGGEARVRNQFLKEMDGLADKNEISKVYVIGATNKPWRLDEPFLRRFQKRIYITLPDKAHRLELLKHYSSKVKLDPNVNLEELAELTDGYTASDIRDIVQSAHMRVVKEMFEKNLQEPRAINMDDFREVLKVRKPSVNQDMLKAYAAWHEKFKAL
B8: the “stoichiometry N” value in series [2] stood at 6; in series [3], 12.

B9: MsVps4ΔMIT (residues 75 to 369) (domain or fragment, Metallosphera sedula, UniProt A4YHC5 75-369, looked up)
chain: VPEGGEETEKAEEDIVMKEKPKVTLNEIVGLEDVKEALKEAVVYPSKRPDLFPLGWPRGILLYGPPGCGKTMIAAAVANELDSEFIHVDAASIMSKWLGEAEKNVAKIFKTARELSKKENKPAIIFIDELDALLASYTSEVGGEARVRNQFLKEMDGLADKNEISKVYVIGATNKPWRLDEPFLRRFQKRIYITLPDKAHRLELLKHYSSKVKLDPNVNLEELAELTDGYTASDIRDIVQSAHMRVVKEMFEKNLQEPRAINMDDFREVLKVRKPSVNQDMLKAYAAWHEKFKAL
Regarding B9, the “stoichiometry N” value in series [4] came out at 6.

B10: hVPS4B Phe160Ala (enzyme)
chain: MSSTSPNLQKAIDLASKAAQEDKAGNYEEALQLYQHAVQYFLHVVKYEAQGDKAKQSIRAKCTEYLDRAEKLKEYLKNKEKKAQKPVKEGQPSPADEKGNDSDGEGESDDPEKKKLQNQLQGAIVIERPNVKWSDVAGLEGAKEALKEAVILPIKFPHLATGKRTPWRGILLFGPPGTGKSYLAKAVATEANNSTFFSISSSDLVSKWLGESEKLVKNLFQLARENKPSIIFIDEIDSLCGSRSENESEAARRIKTEFLVQMQGVGVDNDGILVLGATNIPWVLDSAIRRRFEKRIYIPLPEPHARAAMFKLHLGTTQNSLTEADFRELGRKTDGYSGADISIIVRDALMQPVRKVQSATHFKKVRGPSRADPNHLVDDLLTPCSPGDPGAIEMTWMDVPGDKLLEPVVSMSDMLRSLSNTKPTVNEHDLLKLKKFTEDFGQEG
In turn, B10 showed an ATPase activity at 37°C with ATP/Mg, percent of wild-type hVPS4B with hVPS4B Phe160Ala (human) of 0%.

B11: hVPS4B E235Q (catalytic mutant of human VPS4B), O75351 1-444 (enzyme)
chain: MSSTSPNLQKAIDLASKAAQEDKAGNYEEALQLYQHAVQYFLHVVKYEAQGDKAKQSIRAKCTEYLDRAEKLKEYLKNKEKKAQKPVKEGQPSPADEKGNDSDGEGESDDPEKKKLQNQLQGAIVIERPNVKWSDVAGLEGAKEALKEAVILPIKFPHLFTGKRTPWRGILLFGPPGTGKSYLAKAVATEANNSTFFSISSSDLVSKWLGESEKLVKNLFQLARENKPSIIFIDQIDSLCGSRSENESEAARRIKTEFLVQMQGVGVDNDGILVLGATNIPWVLDSAIRRRFEKRIYIPLPEPHARAAMFKLHLGTTQNSLTEADFRELGRKTDGYSGADISIIVRDALMQPVRKVQSATHFKKVRGPSRADPNHLVDDLLTPCSPGDPGAIEMTWMDVPGDKLLEPVVSMSDMLRSLSNTKPTVNEHDLLKLKKFTEDFGQEG
B11 displayed a stoichiometry N in series [5] of 6.

B12: hVPS4B Met350Ala (enzyme)
chain: MSSTSPNLQKAIDLASKAAQEDKAGNYEEALQLYQHAVQYFLHVVKYEAQGDKAKQSIRAKCTEYLDRAEKLKEYLKNKEKKAQKPVKEGQPSPADEKGNDSDGEGESDDPEKKKLQNQLQGAIVIERPNVKWSDVAGLEGAKEALKEAVILPIKFPHLFTGKRTPWRGILLFGPPGTGKSYLAKAVATEANNSTFFSISSSDLVSKWLGESEKLVKNLFQLARENKPSIIFIDEIDSLCGSRSENESEAARRIKTEFLVQMQGVGVDNDGILVLGATNIPWVLDSAIRRRFEKRIYIPLPEPHARAAMFKLHLGTTQNSLTEADFRELGRKTDGYSGADISIIVRDALAQPVRKVQSATHFKKVRGPSRADPNHLVDDLLTPCSPGDPGAIEMTWMDVPGDKLLEPVVSMSDMLRSLSNTKPTVNEHDLLKLKKFTEDFGQEG
Turning to B12, the ATPase activity at 37°C with ATP/Mg, percent of wild-type hVPS4B with hVPS4B Met350Ala (human) was 0%.
